Data from patent US20210246204A1 (Alector, published 2021).

Target: human Siglec-7 on primary human monocyte-derived dendritic cells (human, UniProt Q9Y286 19-467)
Assay: cell-based or functional assay

Chain of human Siglec-7 on primary human monocyte-derived dendritic cells (Q9Y286 19-467): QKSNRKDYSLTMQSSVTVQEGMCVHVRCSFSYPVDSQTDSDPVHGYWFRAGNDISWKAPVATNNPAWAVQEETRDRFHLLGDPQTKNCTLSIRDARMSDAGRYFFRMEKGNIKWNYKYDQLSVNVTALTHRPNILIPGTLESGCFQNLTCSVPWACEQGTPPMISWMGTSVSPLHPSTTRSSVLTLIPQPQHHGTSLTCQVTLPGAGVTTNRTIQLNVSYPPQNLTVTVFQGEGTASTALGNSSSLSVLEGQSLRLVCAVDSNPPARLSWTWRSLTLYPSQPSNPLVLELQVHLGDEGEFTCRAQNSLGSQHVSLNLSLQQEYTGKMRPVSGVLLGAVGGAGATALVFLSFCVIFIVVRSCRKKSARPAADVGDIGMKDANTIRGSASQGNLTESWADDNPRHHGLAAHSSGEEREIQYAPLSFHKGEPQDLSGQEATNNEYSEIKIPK

Row | Binder | Maximal downregulation (% Siglec-7 remaining) | Receptor downregulation, (EC50) (pM) | Fold increase in potency compared to AB-H8 | Fold increase in potency compared to Chimeric Ab
1 | S7AB chimeric antibody (antibody, V domains shown) VH: QVHLQQSGPELVKPGASVKISCKASGYAFTNCWMNWVRQRPGKGLDWIGRIFPGNGHTNYSGKFKDKATLTEDKSSSTAYMQLSSLTSEDSAVYFCARDYSDYYFDYWGQGTTLTVSS VL: DVQMTQTTSSLSASLGDRVTISCRASQDINTYLNWYQQKPDGTVKLLIYYTSRLHSGVPSRFSGSGSGTDYSLTISNLEQEDIATYFCQQGNTLPWTFGGGTKLEIK | 28.6% | 1024 pM | – | –
2 | S7AB-H8.9.1 (antibody, V domains shown) VH: QVQLVQSGAEVKKPGASVKVSCKASGYAFTAAWMNWVRQAPGQRLEWIGRIFPGLGHTNYAQKFQGRATLTEDTSTSTAYMELSSLRSEDTAVYYCARDYSDYYFDYWGQGTLVTVSS VL: DIQMTQSPSSLSASVGDRVTITCRGSQDINTYLNWYQQKPGKAPKLLIYYTSRLHSGVPSRFSGSGSGTDYTLTISSLQPEDFATYYCQQGNTKPWTFGQGTKLEIK | 4.3% | 103 pM | 3.5 fold | 10.5 fold
3 | S7AB-H8.9.2 (antibody, V domains shown) VH: QVQLVQSGAEVKKPGASVKVSCKASGYAFTAAWMNWVRQARGQRLEWIGRIFPGLGHTNYAQKFQGRATLTEDTSTSTAYMELSSLRSEDTAVYYCARDYSDYYFDYWGQGTLVTVSS VL: DIQMTQSPSSLSASVGDRVTITCRGSQDINTYLNWYQQKPGKAPKLLIYYTSRLHSGVPSRFSGSGSGTDYTLTISSLQPEDFATYYCQQGNTKPWTFGQGTKLEIK | 4.5% | 118 pM | 3.1 fold | 9.2 fold
4 | S7AB-H8.34.1 (antibody, V domains shown) VH: QVQLVQSGAEVKKPGASVKVSCKASGYAFTAAWMNWVRQAPGQRLEWIGRIFPGLGHTNYAQKFQGRATLTEDTSTSTAYMELSSLRSEDTAVYYCARDYSDYYFDYWGQGTLVTVSS VL: DIQMTQSPSSLSASVGDRVTITCRGSQDINTYLNWYQQKPGKAPKLLIYYTSRLHSGVPSRFSGSGSGTDYTLTISSLQPEDFATYYCQQGGTLPWTFGQGTKLEIK | 4.4% | 99.5 pM | 3.6 fold | 10.9 fold
5 | S7AB-H8.30.2 (antibody, V domains shown) VH: QVQLVQSGAEVKKPGASVKVSCKASGYAFTEAWMNWVRQARGQRLEWIGRIFPGYGHTNYAQKFQGRATLTEDTSTSTAYMELSSLRSEDTAVYYCARDYSDYYFDYWGQGTLVTVSS VL: DIQMTQSPSSLSASVGDRVTITCRASQDANTYLNWYQQKPGKAPKLLIYYTSRLHSGVPSRFSGSGSGTDYTLTISSLQPEDFATYYCQQGNLLPWTFGQGTKLEIK | 10.1% | 115 pM | 3.2 fold | 9.4 fold
6 | S7AB-H8.44.1 (antibody, V domains shown) VH: QVQLVQSGAEVKKPGASVKVSCKASGYAFTAAWMNWVRQAPGQRLEWIGRIFPGLGHTNYAQKFQGRATLTEDTSTSTAYMELSSLRSEDTAVYYCARDYSDYYFDYWGQGTLVTVSS VL: DIQMTQSPSSLSASVGDRVTITCRGSQDINTYLNWYQQKPGKAPKLLIYYTSRLHSGVPSRFSGSGSGTDYTLTISSLQPEDFATYYCQQGNILPWTFGQGTKLEIK | 4.1% | 73.9 pM | 4.9 fold | 14.7 fold
7 | S7AB-H8.45.2 (antibody, V domains shown) VH: QVQLVQSGAEVKKPGASVKVSCKASGYAFTEAWMNWVRQARGQRLEWIGRIFPGYGHTNYAQKFQGRATLTEDTSTSTAYMELSSLRSEDTAVYYCARDYSDYYFDYWGQGTLVTVSS VL: DIQMTQSPSSLSASVGDRVTITCRGSQDINTYLNWYQQKPGKAPKLLIYYTSRLHSGVPSRFSGSGSGTDYTLTISSLQPEDFATYYCQQGNILPWTFGQGTKLEIK | 8.7% | 109 pM | 3.3 fold | 9.9 fold
8 | S7AB-H8.10.1 (antibody, V domains shown) VH: QVQLVQSGAEVKKPGASVKVSCKASGYAFTEAWMNWVRQAPGQRLEWIGRIFPGYGHTNYAQKFQGRATLTEDTSTSTAYMELSSLRSEDTAVYYCARDYSDYYFDYWGQGTLVTVSS VL: DIQMTQSPSSLSASVGDRVTITCRGSQDINTYLNWYQQKPGKAPKLLIYYTSRLHSGVPSRFSGSGSGTDYTLTISSLQPEDFATYYCQQGNTKPWTFGQGTKLEIK | 10.7% | 154 pM | 2.4 fold | 7 fold
9 | S7AB-H8.44.2 (antibody, V domains shown) VH: QVQLVQSGAEVKKPGASVKVSCKASGYAFTAAWMNWVRQARGQRLEWIGRIFPGLGHTNYAQKFQGRATLTEDTSTSTAYMELSSLRSEDTAVYYCARDYSDYYFDYWGQGTLVTVSS VL: DIQMTQSPSSLSASVGDRVTITCRGSQDINTYLNWYQQKPGKAPKLLIYYTSRLHSGVPSRFSGSGSGTDYTLTISSLQPEDFATYYCQQGNILPWTFGQGTKLEIK | 3.3% | 76.7 pM | 4.7 fold | 14.1 fold
10 | S7AB-H8.35.2 (antibody, V domains shown) VH: QVQLVQSGAEVKKPGASVKVSCKASGYAFTEAWMNWVRQARGQRLEWIGRIFPGYGHTNYAQKFQGRATLTEDTSTSTAYMELSSLRSEDTAVYYCARDYSDYYFDYWGQGTLVTVSS VL: DIQMTQSPSSLSASVGDRVTITCRGSQDINTYLNWYQQKPGKAPKLLIYYTSRLHSGVPSRFSGSGSGTDYTLTISSLQPEDFATYYCQQGGTLPWTFGQGTKLEIK | 10.8% | 205 pM | 1.8 fold | 5.3 fold

The next lines start with the values.

Row | Maximal downregulation (% Siglec-7 remaining) | Receptor downregulation, (EC50) (pM) | Fold increase in potency compared to AB-H8 | Fold increase in potency compared to Chimeric Ab | Binder
11 | 11.3% | 134 pM | 2.7 fold | 8.1 fold | S7AB-H8.30.1 (antibody, V domains shown) VH: QVQLVQSGAEVKKPGASVKVSCKASGYAFTEAWMNWVRQAPGQRLEWIGRIFPGYGHTNYAQKFQGRATLTEDTSTSTAYMELSSLRSEDTAVYYCARDYSDYYFDYWGQGTLVTVSS VL: DIQMTQSPSSLSASVGDRVTITCRASQDANTYLNWYQQKPGKAPKLLIYYTSRLHSGVPSRFSGSGSGTDYTLTISSLQPEDFATYYCQQGNLLPWTFGQGTKLEIK
12 | 7.8% | 97 pM | 3.7 fold | 11.2 fold | S7AB-H8.45.1 (antibody, V domains shown) VH: QVQLVQSGAEVKKPGASVKVSCKASGYAFTEAWMNWVRQAPGQRLEWIGRIFPGYGHTNYAQKFQGRATLTEDTSTSTAYMELSSLRSEDTAVYYCARDYSDYYFDYWGQGTLVTVSS VL: DIQMTQSPSSLSASVGDRVTITCRGSQDINTYLNWYQQKPGKAPKLLIYYTSRLHSGVPSRFSGSGSGTDYTLTISSLQPEDFATYYCQQGNILPWTFGQGTKLEIK
13 | 10.5% | 184 pM | 2 fold | 5.9 fold | S7AB-H8.35.1 (antibody, V domains shown) VH: QVQLVQSGAEVKKPGASVKVSCKASGYAFTEAWMNWVRQAPGQRLEWIGRIFPGYGHTNYAQKFQGRATLTEDTSTSTAYMELSSLRSEDTAVYYCARDYSDYYFDYWGQGTLVTVSS VL: DIQMTQSPSSLSASVGDRVTITCRGSQDINTYLNWYQQKPGKAPKLLIYYTSRLHSGVPSRFSGSGSGTDYTLTISSLQPEDFATYYCQQGGTLPWTFGQGTKLEIK
14 | 4.9% | 88.9 pM | 4.1 fold | 12.2 fold | S7AB-H8.29.2 (antibody, V domains shown) VH: QVQLVQSGAEVKKPGASVKVSCKASGYAFTAAWMNWVRQARGQRLEWIGRIFPGLGHTNYAQKFQGRATLTEDTSTSTAYMELSSLRSEDTAVYYCARDYSDYYFDYWGQGTLVTVSS VL: DIQMTQSPSSLSASVGDRVTITCRASQDANTYLNWYQQKPGKAPKLLIYYTSRLHSGVPSRFSGSGSGTDYTLTISSLQPEDFATYYCQQGNLLPWTFGQGTKLEIK
15 | 12.1% | 169 pM | 2.1 fold | 6.4 fold | S7AB-H8.10.2 (antibody, V domains shown) VH: QVQLVQSGAEVKKPGASVKVSCKASGYAFTEAWMNWVRQARGQRLEWIGRIFPGYGHTNYAQKFQGRATLTEDTSTSTAYMELSSLRSEDTAVYYCARDYSDYYFDYWGQGTLVTVSS VL: DIQMTQSPSSLSASVGDRVTITCRGSQDINTYLNWYQQKPGKAPKLLIYYTSRLHSGVPSRFSGSGSGTDYTLTISSLQPEDFATYYCQQGNTKPWTFGQGTKLEIK
16 | 5.3% | 53.2 pM | 6.8 fold | 20.4 fold | S7AB-H8.29.1 (antibody, V domains shown) VH: QVQLVQSGAEVKKPGASVKVSCKASGYAFTAAWMNWVRQAPGQRLEWIGRIFPGLGHTNYAQKFQGRATLTEDTSTSTAYMELSSLRSEDTAVYYCARDYSDYYFDYWGQGTLVTVSS VL: DIQMTQSPSSLSASVGDRVTITCRASQDANTYLNWYQQKPGKAPKLLIYYTSRLHSGVPSRFSGSGSGTDYTLTISSLQPEDFATYYCQQGNLLPWTFGQGTKLEIK
17 | 5.4% | 110 pM | 3.3 fold | 9.9 fold | S7AB-H8.34.2 (antibody, V domains shown) VH: QVQLVQSGAEVKKPGASVKVSCKASGYAFTAAWMNWVRQARGQRLEWIGRIFPGLGHTNYAQKFQGRATLTEDTSTSTAYMELSSLRSEDTAVYYCARDYSDYYFDYWGQGTLVTVSS VL: DIQMTQSPSSLSASVGDRVTITCRGSQDINTYLNWYQQKPGKAPKLLIYYTSRLHSGVPSRFSGSGSGTDYTLTISSLQPEDFATYYCQQGGTLPWTFGQGTKLEIK
